Data set [1] has as its system Aβ1-40 and Aβ1-42 in hAPP transgenic mice. Kind of data set: hAPP transgenic mice, continuous ICV infusion, Aβ levels. The class given is in vivo, mouse. The note with it: ICV infusion 7 days. The protocol:
Similar experiments were also performed in which YW412.8.31 anti-BACE1 antibody was delivered systemically or directly into hAPP transgenic mice brains by continuous ICV infusion. For ICV delivery, antibody was delivered continuously for 7 days via an Alzet osmotic minipump (model 2001) implanted unilaterally. The amount of YW412.8.31 antibody delivered was 0.041 mg/day (low dose) or 0.41 mg/day (high dose); 0.33 mg/day Control IgG was delivered to the control group. At euthanasia, plasma, cortex, and hippocampus were harvested and analyzed for levels of soluble Aβ1-40 and Aβ1-42 by ELISA (The Genetics Company) following manufacturer's instructions.

For the next data set, the target named is T1, Cathepsin D (Homo sapiens, UniProt P07339).
T1 construct: the extracellular domain of Cathepsin D (6 nM, Calbiochem®); purchased Calbiochem
Description: MCE assay, cathepsin D. The format is biochemical. The procedure: The MCE assay reactions were carried out in a final volume of 20 μL per well in a 384-well microplate. A standard enzymatic reaction, initiated by the addition of 10 μL 2× substrate to 5 μL of 4× enzyme and […] of 4× compound, containing 12 nM human BACE1 extracellular domain, […] amyloid precursor protein beta secretase active site peptide (FAM-[…]-CONH2 (SEQ ID NO:55)), 50 mM NaOAc pH 4.4 and 0.1% CHAPS. The same reaction conditions were used for the extracellular domain of human BACE2 enzyme (5 nM) and the extracellular domain of Cathepsin D (6 nM, Calbiochem®). After incubation for 60 minutes at ambient temperature, the product and substrate in each reaction were separated using a 12-sipper microfluidic chip analyzed on an LC3000® (both, Caliper Life Sciences). The separation of product and substrate was optimized by choosing voltages and pressure using the manufacturer's optimization software. The separate buffer contained 100 mM HEPES pH 7.2, 0.015% Brij-35, 0.1% coating reagent #3, 10 mM EDTA and 5% DMSO. The separation conditions used a downstream voltage of −500V, an upstream voltage of −2250V and a screening pressure of −1.2 psi. The product and substrate fluorescence was excited at a wavelength of 488 nm and detected at a wavelength of 530 nm. Substrate conversion was calculated from the electropherogram using HTS Well Analyzer software (Caliper Life Sciences).

The nature of data set [2]: Antibody concentration in serum and brain of wild-type mice. The class given is in vivo, mouse. The procedure: Total anti-BACE1 antibody concentrations in mouse serum and brain samples were measured as follows. Antibody concentrations in mouse serum and brain samples were measured using an enzyme-linked immunosorbent assay (ELISA). NUNC 384 well Maxisorp immunoplates (Neptune, N.J.) were coated with F(ab′)2 fragment of donkey anti-human IgG, Fc fragment specific polyclonal antibody (Jackson ImmunoResearch, West Grove, Pa.) overnight at 4° C. Plates were blocked with phosphate-buffered saline (PBS) containing 0.5% bovine serum albumin (BSA) for 1 hour at room temperature the next day. Each antibody (Control IgG and anti-BACE1) was used as a standard to quantify the respective antibody concentrations. After washing plates with PBS containing 0.05% Tween 20 using a microplate washer (Bio-Tek Instruments, Inc., Winooski, Vt.), standards and samples diluted in PBS containing 0.5% BSA, 0.35 M NaCl, 0.25% CHAPS, 5 mM EDTA, 0.05% Tween 20 and 15 ppm Proclin were incubated on plates for 2 hours at room temperature with mild agitation. Bound antibody was detected with horseradish peroxidase conjugated F(ab′)2 goat anti-human IgG, Fc specific polyclonal antibody (Jackson ImmunoResearch). Finally, plates were developed using the substrate 3,3′,5,5′-tetramethyl benzidine (TMB) (KPL, Inc., Gaithersburg, Md.). Absorbance was measured at a wavelength of 450 nm with a reference of 630 nm on a Multiskan Ascent reader (Thermo Scientific, Hudson, N.H.). Concentrations were determined from the standard curve using a four-parameter non-linear regression program.

The next data set has as its target T2, murine BACE1 ECD (Mus musculus, UniProt P56818).
T2 construct: human BACE1 ECD or murine BACE1 ECD (amino acids 1-457) was injected in PBT buffer
Description: BIAcore SPR binding kinetics, mouse BACE1. The note with it: mouse BACE1, pH 7.0, 25° C. The procedure:
The binding kinetics of YW412.8.31 was assessed. Briefly, binding affinities of anti-BACE1 IgGs were measured by surface plasmon resonance (SPR) using a BIAcore™-3000 instrument. YW412.8.31 anti-BACE1 human IgG was captured by mouse anti-human Fc antibody (GE Healthcare, cat# BR-1008-39) coated on CM5 biosensor chips to achieve approximately 100 response units (RU). For kinetics measurements, two-fold serial dilutions (0.98 nM to 125 nM) of human BACE1 ECD or murine BACE1 ECD (amino acids 1-457) was injected in PBT buffer (PBS with 0.05% Tween 20) at 25° C. with a flow rate of 30 μl/min. Association rates (kon) and dissociation rates (koff) were calculated using a simple one-to-one Langmuir binding model (BIAcore™ Evaluation Software version 3.2). The equilibrium dissociation constant (KD) was calculated as the ratio koff/kon.
On the technique in general: SPR reads the build-up and loss of mass on a sensor chip optically.

The test system of data set [3] is 293-HEK cells stably expressing wild-type human amyloid precursor protein. Kind of data set: Aβ1-40 production in 293-HEK cells expressing APP. The class given is cell-based. The protocol: To determine whether the observed in vitro inhibitory action of the anti-BACE1 antibodies on APP processing was also present in a cellular context, […]. The ability of the antibodies to inhibit Aβ1-40 production in 293-HEK cells stably expressing wild-type human amyloid precursor protein was assessed as follows. 293-APP^WT cells were seeded overnight at a density of 3×10^4 cells/well in a 96-well plate. […] of fresh media (DMEM+10% FBS) containing an anti-BACE1 antibody or a control IgG1 antibody was incubated with the cells for 24 hours at 37° C. A tricyclic small molecule BACE1 inhibitor (BACE1 SMI) was also used as a control ((Compound 8e—Charrier, N. et al. J. Med. Chem. 51:3313-3317 (2008)). The cellular media was harvested and assayed for the presence of Aβ1-40 using a Aβ1-40 HTRF® assay (CisBio) according to the manufacturer's instructions. Aβ1-40 values were normalized for cell viability, as determined using the CellTiter-Glo Luminescent Cell Viability Assay (Promega). Experiments were performed at least three times, and each point in each experiment was repeated in duplicate. Data was plotted using a four-parameter non-linear regression curve-fitting program (Kaleidagraph, Synergy Software).

[4] abbreviates: 30 mg/kg IP every 4 days, 3 doses.
Where [5] appears, read: 100 mg/kg IP every 4 days, 3 doses.

The term Kd denotes the equilibrium constant for the complex coming apart.

“And” between values parts separate entries of the source, which are not always exact repeats. Equal entries are not always repeated.

T2 sequence (P56818 22-457): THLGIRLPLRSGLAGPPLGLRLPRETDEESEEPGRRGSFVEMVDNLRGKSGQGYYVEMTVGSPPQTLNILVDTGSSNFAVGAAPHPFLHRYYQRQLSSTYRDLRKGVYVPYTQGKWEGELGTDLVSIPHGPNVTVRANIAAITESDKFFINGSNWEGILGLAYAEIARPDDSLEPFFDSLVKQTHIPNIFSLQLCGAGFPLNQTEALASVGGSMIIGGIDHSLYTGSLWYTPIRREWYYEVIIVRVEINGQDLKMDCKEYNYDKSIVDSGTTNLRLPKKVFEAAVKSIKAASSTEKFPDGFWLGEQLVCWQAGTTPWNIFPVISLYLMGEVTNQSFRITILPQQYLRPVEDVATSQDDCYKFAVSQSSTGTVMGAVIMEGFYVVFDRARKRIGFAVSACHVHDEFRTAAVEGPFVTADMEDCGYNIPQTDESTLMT
T1 sequence (P07339 65-412, species assumed): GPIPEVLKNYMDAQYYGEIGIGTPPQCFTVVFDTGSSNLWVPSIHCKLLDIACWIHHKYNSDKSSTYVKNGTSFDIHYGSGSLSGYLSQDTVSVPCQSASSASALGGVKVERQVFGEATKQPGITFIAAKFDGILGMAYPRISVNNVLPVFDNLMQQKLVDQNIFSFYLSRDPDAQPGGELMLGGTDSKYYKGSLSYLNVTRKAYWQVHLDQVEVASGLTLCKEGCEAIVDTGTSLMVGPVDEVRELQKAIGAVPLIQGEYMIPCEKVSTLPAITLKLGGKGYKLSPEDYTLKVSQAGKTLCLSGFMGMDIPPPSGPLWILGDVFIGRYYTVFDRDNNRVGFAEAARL

B1: YW412.8.31: affinity matured form of YW412.8 anti-BACE1 antibody (antibody, V domains shown)
VH: EVQLVESGGGLVQPGGSLRLSCAASGFTFLGYGIHWVRQAPGKGLEWVGWISPAGGSTDYADSVKGRFTISADTSKNTAYLQMNSLRAEDTAVYYCARGPFSPWVMDYWGQGTLVTVSS
VL: DIQMTQSPSSLSASVGDRVTITCRASQDVSTAVAWYQQKPGKAPKLLIYSASFLYSGVPSRFSGSGSGTDFTLTISSLQPEDFATYYCQQFPTYLPTFGQGTKVEIK
Take B1: the “Aβ reduction following ICV infusion” value in data set [1] is reported as 15-23%. Also, in data set [1] (both doses), the “reduction of Aβ1-40 and Aβ1-42 in cortex” value was 15-23%; the “reduction of Aβ1-40 and Aβ1-42 in hippocampus” value is 15-20%. Also, the “inhibition of cathepsin D” value with Cathepsin D is given as “did not inhibit”. In addition, in data set [2] (setting [4]), the concentration in brain is 0.9±0.6 μg/g and 5.9±4.3 nM; the concentration in serum worked out at 480 ± 210 µg/mL. In data set [2] (setting [5]), the concentration in brain was 3.0±1.6 μg/g and 20±10 nM; the concentration in serum amounted to 1500 ± 440 µg/mL. In addition, in data set [2] (100 mg/kg single IP, 4 hours), the “brain concentration as share of concentration in serum” value is about 0.07%; the concentration in brain is 0.7±0.4 μg/g and 4.7±2.7 nM; the concentration in serum is 1040±140 μg/mL and 6.9±0.9 μM. Moreover, in the data set with murine BACE1 ECD, the KON was 1.01 × 10^5 M^−1S^−1 and 1.4 × 10^5 M^−1S^−1; the Kd was 1.4 nM and 2.1 nM. In data set [3] (24 hours, compared to non-BACE1 IgG (Xolair)), the “inhibition of Aβ1-40 production” value is listed as “inhibited”. For the same molecule, the “maximum reduction of Aβ1-40 production” value in data set [3] (APP-expressing 293 cells) is reported as about 90%.
